{
  "source": "paper PMC2936869",
  "about": "“Secreted fungal sulfhydryl oxidases: sequence analysis and characterisation of a representative flavin-dependent enzyme from Aspergillus oryzae” (BMC Biochemistry, 2010)",
  "molecules": {"B1": {"name": "AoSOX1 (Aspergillus oryzae RIB40) (protein)", "chain": "ASVPQTDYEVIVVGGGPAGLTALSGLSRVRRKTALFDSHEYRNAATRNMHDVIGNDGTVPSEFRGLAREQISRYDTATFIDKRVNTIETVSDEATNTSYFRAQDADGKAYTARKVVLGTGLVDILPDVPGLQEAWGKGVYWCPWCDGYEHRDQPFGILGALPDVVGSVLEVYTLNTDIIAFVNGTQTPDQEAELAKKYPNWEAQLEAYNVRLENETIASFERIQDGSWVKDRNGTRQIDIFRVHFTNGSSVDRNAFITNYPSEQRSDLPKQLGLAMLGNKIDATTNPGMRTSLPGVWAIGDCNSDNSTNVPHAMFSGKKAAVFAHVEMAKEESNTAIDKRDDFVKEVEKRMGNDMEKIYNRSRGL", "notes": "secreted full-length protein, 384 aa including predicted 19-residue signal peptide (removed); C-terminal His6 tag added but apparently cleaved off by host protease; expressed in Trichoderma reesei; N-glycosylated; MW 43959 by MS"}},
  "key": {"AoSOX1": {"biological_target": "T1, AoSOX1 (Aspergillus oryzae, UniProt Q2UA33)", "T1 construct": "gene AO090102000564; secreted full-length protein, 384 aa including predicted 19-residue signal peptide (removed); C-terminal His6 tag added but apparently cleaved off by host protease; expressed in Trichoderma reesei; N-glycosylated; MW 43959 by MS", "T1 sequence (Q2UA33 20-384)": "B1 chain", "assay": "UV/visible absorption; cofactor released by thermal and chemical denaturation", "format": "binding", "conditions": "non-covalently bound cofactor; 20 mM Tris-HCl pH 7.0, 25 °C"}, "[1]": {"substrate": "N[C@@H](CS)C(=O)O", "assay": "initial rates, Michaelis-Menten (HVA-peroxidase coupled assay, the paper's general assay)", "format": "biochemical, Aspergillus oryzae", "conditions": "co-substrate O2, general assay in 50 mM potassium phosphate, 0.3 mM EDTA, pH 7.5", "description": "(§1) initial rates, Michaelis-Menten (HVA-peroxidase coupled assay, the paper's general assay) on AoSOX1"}, "[2]": {"substrate": "N[C@H](CS)C(=O)O", "assay": "initial rates, Michaelis-Menten (HVA-peroxidase coupled assay, the paper's general assay)", "format": "biochemical, Aspergillus oryzae", "conditions": "co-substrate O2, general assay in 50 mM potassium phosphate, 0.3 mM EDTA, pH 7.5", "description": "as §1"}, "[3]": {"substrate": "OCCS", "assay": "initial rates, Michaelis-Menten (HVA-peroxidase coupled assay, the paper's general assay)", "format": "biochemical, Aspergillus oryzae", "conditions": "co-substrate O2, general assay in 50 mM potassium phosphate, 0.3 mM EDTA, pH 7.5", "description": "as §1"}},
  "data": [
    {"molecule": "Cc1cc2nc3c(=O)[nH]c(=O)nc-3n(C[C@H](O)[C@H](O)[C@H](O)COP(=O)(O)OP(=O)(O)OC[C@H]3O[C@@H](n4cnc5c(N)ncnc54)[C@H](O)[C@@H]3O)c2cc1C", "note": "[FAD]", "values": [
      {"measurement": "UV/visible absorption; cofactor released by thermal and chemical denaturation", "setting": "AoSOX1", "value": "The cofactor was spectrophotometrically identified to be FAD after the cofactor was released"}
    ]},
    {"molecule": "B1", "values": [
      {"measurement": "Km", "setting": "[1]", "value": "6.11 ± 0.13", "unit": "mM"},
      {"measurement": "Vmax/Km", "setting": "[1]", "value": 21800, "unit": "min⁻¹"},
      {"measurement": "Km", "setting": "[2]", "value": "1.55 ± 0.03", "unit": "mM"},
      {"measurement": "Vmax/Km", "setting": "[2]", "value": 9780, "unit": "min⁻¹"},
      {"measurement": "kcat", "setting": "[2]", "value": 5950, "unit": "s⁻¹"},
      {"measurement": "Km", "setting": "[3]", "value": "9.73 ± 0.08", "unit": "mM"},
      {"measurement": "Vmax/Km", "setting": "[3]", "value": 13100, "unit": "min⁻¹"}
    ]}
  ]
}
